Tests used:
[1] = target: T1, human PD-1 expressed on the cell surface of engineered Jurkat cells (human, UniProt Q15116 25-288); experiment: cell-based or functional assay
[2] = target: T2, human TIGIT expressed on the cell surface (human, UniProt Q495A1 22-244); experiment: cell-based or functional assay
T2 sequence (looked up): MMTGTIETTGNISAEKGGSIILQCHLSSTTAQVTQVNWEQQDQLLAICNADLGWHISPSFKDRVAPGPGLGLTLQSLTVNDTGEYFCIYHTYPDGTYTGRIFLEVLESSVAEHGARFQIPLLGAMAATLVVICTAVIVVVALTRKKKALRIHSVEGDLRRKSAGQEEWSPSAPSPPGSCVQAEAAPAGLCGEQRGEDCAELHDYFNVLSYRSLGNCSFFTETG

[3] = target: T3, human PD-1 and human TIGIT co-expressed on Jurkat PD-1^+TIGIT^+ cells (human, UniProt Q15116 25-288; Q495A1 22-244); experiment: cell-based or functional assay
[4] = target: T1, human PD-1 expressed on the cell …; experiment: flow cytometry on PD-1^+ Jurkat cells
[5] = target: T2, human TIGIT expressed on the cell …; experiment: flow cytometry on TIGIT^+ Jurkat cells
[6] = target: T3, human PD-1 and human TIGIT co-expressed …; experiment: flow cytometry on PD-1^+TIGIT^+ Jurkat cells, mean
From the text: (§1) TIGIT⁻ cells. […] MFI=geometric mean fluorescence intensity; PD-1=programmed cell-death protein 1; TIGIT=T cell immunoreceptor with Ig and immunoreceptor tyrosine-based inhibitory motif domains. Cellular binding to human single expressing cell lines: Jurkat PD-1⁻ TIGIT⁺ and Jurkat PD-1⁺TIGIT⁻ or human double expressing Jurkat PD-1⁺ TIGIT⁺. Test and control article antibodies were detected with fluorescently conjugated goat anti human IgG secondary antibody and evaluated by flow cytometry.

[7] = target: T1, human PD-1 expressed on the cell …; experiment: flow cytometry on PD-1^+TIGIT^- Jurkat cells, mean
[8] = target: T2, human TIGIT expressed on the cell …; experiment: flow cytometry on PD-1^-TIGIT^+ Jurkat cells, mean
From the text: as §1

[9] = target: T1, human PD-1 expressed on the cell …; experiment: flow cytometry on PD-1^+ Jurkat cells, Experiment #1
[10] = target: T1, human PD-1 expressed on the cell …; experiment: flow cytometry on PD-1^+ Jurkat cells, Experiment #2
[11] = target: T2, human TIGIT expressed on the cell …; experiment: flow cytometry on TIGIT^+ Jurkat cells, Experiment #1
[12] = target: T2, human TIGIT expressed on the cell …; experiment: flow cytometry on TIGIT^+ Jurkat cells, Experiment #2
[13] = target: T3, human PD-1 and human TIGIT co-expressed …; experiment: flow cytometry on PD-1^+TIGIT^+ Jurkat cells, Experiment #2
From the text: as §1

[14] = target: T1, human PD-1 expressed on the cell …; experiment: flow cytometry on PD-1^+TIGIT^- Jurkat cells, Experiment #1
[15] = target: T1, human PD-1 expressed on the cell …; experiment: flow cytometry on PD-1^+TIGIT^- Jurkat cells, Experiment #2
[16] = target: T2, human TIGIT expressed on the cell …; experiment: flow cytometry on PD-1^-TIGIT^+ Jurkat cells, Experiment #1
From the text: as §1

[17] = target: T2, human TIGIT expressed on the cell …; experiment: flow cytometry on PD-1^-TIGIT^+ Jurkat cells, Experiment #2
From the text: as §1

[18] = target: T1, human PD-1 expressed on the cell …; experiment: flow cytometry on PD-1^+ Jurkat cells, mean of two experiments
[19] = target: T2, human TIGIT expressed on the cell …; experiment: flow cytometry on TIGIT^+ Jurkat cells, mean of two experiments
[20] = target: T4, cyTIGIT (cynomolgus TIGIT, recombinant) (cynomolgus, UniProt A0A7N9I9V4 89-209); experiment: SPR (BIAcore T200), PD-1/TIGIT DuetMab sample, cyTIGIT as ligand
T4 construct: Ligand in the BIAcore assay; The construct is not described
Procedure: (§2) Binding experiments were carried out using a BIAcore T200 instrument (BIAcore).

[21] = target: T5, recombinant human TIGIT protein (human, UniProt Q495A1 22-141); experiment: SPR (BIAcore T200), PD-1/TIGIT DuetMab sample, huTIGIT as ligand
T5 construct: In the Octet assay it was used biotinylated on streptavidin sensors or in solution; Construct and tags are not described; also called huTIGIT; human TIGIT antigen
T5 sequence (looked up): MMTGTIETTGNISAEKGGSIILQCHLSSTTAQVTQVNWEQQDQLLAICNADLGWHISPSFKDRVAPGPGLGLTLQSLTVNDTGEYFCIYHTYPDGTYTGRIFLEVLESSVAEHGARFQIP
Procedure: as §2

[22] = target: T6, muTIGIT (mouse TIGIT, recombinant) (mouse (printed as 'mu'), UniProt P86176 29-148, limits assumed); experiment: SPR (BIAcore T200), PD-1/TIGIT DuetMab sample, muTIGIT as ligand
T6 construct: Ligand in the BIAcore assay; The construct is not described
T6 sequence (looked up): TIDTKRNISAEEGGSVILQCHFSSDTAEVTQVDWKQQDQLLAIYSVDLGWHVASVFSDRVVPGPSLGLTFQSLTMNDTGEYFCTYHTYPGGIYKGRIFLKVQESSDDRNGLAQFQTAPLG
Procedure: as §2

[23] = target: T3, human PD-1 and human TIGIT co-expressed …; experiment: flow cytometry on PD-1^+TIGIT^+ Jurkat cells, Experiment #1; PD-1^+TIGIT^+ Jurkat cells, Experiment #1
From the text: as §1

[24] = target: T2, human TIGIT expressed on the cell …; experiment: flow cytometry (MFI) on 293 cells overexpressing human TIGIT; Kd row of the table under the graph, the concentration axis is [nM]
[25] = target: T7, cynomolgus TIGIT overexpressed on 293 cells (cynomolgus, UniProt A0A7N9I9V4 89-312); experiment: flow cytometry (MFI) on 293 cells overexpressing cynomolgus TIGIT; Kd row of the table under the graph, the concentration axis is [nM]
T7 construct: whole, on cells
T7 sequence (A0A7N9I9V4 entry or part of it): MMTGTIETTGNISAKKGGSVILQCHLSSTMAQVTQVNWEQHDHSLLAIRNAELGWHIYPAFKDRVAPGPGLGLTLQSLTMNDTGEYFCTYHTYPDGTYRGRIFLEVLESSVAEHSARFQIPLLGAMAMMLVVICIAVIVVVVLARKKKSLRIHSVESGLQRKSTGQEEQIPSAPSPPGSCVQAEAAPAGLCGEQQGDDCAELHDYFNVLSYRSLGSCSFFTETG

T3 sequence (Q15116 25-288, one chain of several): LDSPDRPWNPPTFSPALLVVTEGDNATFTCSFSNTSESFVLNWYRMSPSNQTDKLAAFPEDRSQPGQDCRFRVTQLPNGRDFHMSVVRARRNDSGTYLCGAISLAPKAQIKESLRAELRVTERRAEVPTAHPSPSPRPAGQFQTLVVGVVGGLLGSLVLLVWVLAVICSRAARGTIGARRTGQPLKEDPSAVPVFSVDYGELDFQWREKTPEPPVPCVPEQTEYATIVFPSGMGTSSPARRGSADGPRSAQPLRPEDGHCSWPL
T1 sequence (Q15116 25-288, change not shown): as the sequence (Q15116 25-288, one chain of several) above
T4 sequence (A0A7N9I9V4 entry or part of it): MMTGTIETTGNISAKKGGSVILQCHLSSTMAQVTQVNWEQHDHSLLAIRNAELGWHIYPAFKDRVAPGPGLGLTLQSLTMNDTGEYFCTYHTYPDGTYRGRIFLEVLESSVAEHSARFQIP

B1: AZD2936 (PD-1/TIGIT bispecific DuetMab, LO115/VAR1 VHGL-VLGL(M-I)) (bispecific antibody, human IgG1, kappa, lambda)
heavy 1: EVQLVESGGGLVQPGGSLRLSCAASGFTFSDYGMHWVRQAPGKGLEWVAYISSGSYTIYSADSVKGRFTISRDNAKNSLYLQMNSLRAEDTAVYYCARRAPNSFYEYYFDYWGQGTTVTVSSASTKGPSVFPLAPSSKSTSGGTAALGCLVKDYFPEPVTVSWNSGALTSGVHTFPAVLQSSGLYSLSSVVTVPSSSLGTQTYICNVNHKPSNTKVDKRVEPKSCDKTHTCPPCPAPEFEGGPSVFLFPPKPKDTLMISRTPEVTCVVVDVSHEDPEVKFNWYVDGVEVHNAKTKPREEQYNSTYRVVSVLTVLHQDWLNGKEYKCKVSNKALPASIEKTISKAKGQPREPQVCTLPPSREEMTKNQVSLSCAVKGFYPSDIAVEWESNGQPENNYKTTPPVLDSDGSFFLVSKLTVDKSRWQQGNVFSCSVMHEALHNHYTQKSLSLSPGK
light 1: QIVLTQSPATLSLSPGERATLSCSASSKHTNLYWSRHMYWYQQKPGQAPRLLIYLTSNRATGIPARFSGSGSGTDFTLTISSLEPEDFAVYYCQQWSSNPFTFGQGTKLEIKRTVAAPSVFIFPPSDEQLKSGTASVVCLLNNFYPREAKVQWKVDNALQSGNSQESVTEQDSKDSTYSLSSTLTLSKADYEKHKVYACEVTHQGLSSPVTKSFNRGEC
heavy 2: not shown
light 2: not shown
notes: also called VAR1 (LO115/VHGL-VLGL(M-I)); VL GL (CDRL1 M-I) + VH GL
In the case of B1, the “EC50 (nM), NFAT-luciferase reporter, Experiment #1” value (from here on “EC50 (nM) … Experiment #1”) [1] is reported as 4.7 nM, the “EC50 (nM), NFAT-luciferase reporter, Experiment #2” value (“EC50 (nM) … Experiment #2” below) [1] is reported as 3.83 nM and the “Fold Change of Mean EC50 vs. Anti-PD-1” value [1] is reported as 1.4 fold. The “Mean EC50 (nM), NFAT-luciferase reporter” value [1] was 4.26 nM, the “EC50 (nM) … Experiment #1” value [2] was 17 nM and the “EC50 (nM) … Experiment #2” value [2] was 13.7 nM. For the same binder, the “Fold Change of Mean EC50 vs. Anti-TIGIT” value [2] was 6.89 fold, the “Mean EC50 (nM), NFAT-luciferase reporter” value [2] was 15.3 nM and the “EC50 (nM) … Experiment #1” value [3] was 5.57 nM. The “EC50 (nM) … Experiment #2” value [3] was 6.07 nM, the “Fold Change of Mean EC50 vs. Anti-TIGIT and Anti-PD-1 combination” value [3] was 0.93 fold and the “Mean EC50 (nM), NFAT-luciferase reporter” value [3] was 5.82 nM. For the same binder, the “Fold Change vs. anti-PD-1 (mean EC50)” value [4] was 4.82 fold, the “Fold Change vs. anti-TIGIT (mean EC50)” value [5] was 2.85 fold and the EC50 [6] was 0.632 nM. For the same binder, the EC50 [7] was 0.797 nM, the EC50 [8] was 0.314 nM and the EC50 [9] was 0.944 nM. It also gave an EC50 [10] of 5.49 nM, an EC50 [11] of 0.303 nM and an EC50 [12] of 0.375 nM. It also gave an EC50 [13] of 0.769 nM, an EC50 [14] of 0.584 nM and an EC50 [15] of 1.01 nM. The EC50 [16] was 0.282 nM, the EC50 [17] was 0.346 nM and the EC50 [18] was 3.22 nM. It also gave an EC50 [19] of 0.339 nM, a Kd [20] of 41.1 nM and a koff [20] of 0.0411 s⁻¹. The kon [20] was 999000 M⁻¹ s⁻¹, the Kd [21] was 0.015 nM and the koff [21] was 6.57e-05 s⁻¹. The kon [21] was 4.37e+06 M⁻¹ s⁻¹, the Kd [22] was 2.9 nM and the koff [22] was 0.00631 s⁻¹. The kon [22] was 2.17e+06 M⁻¹ s⁻¹, the EC50 [23] was 0.495 nM and the Kd [24] was 3.42 nM. The Kd [25] was 19.9 nM.

Source: patent US12570744 (AstraZeneca / MedImmune, dated 2026)
